Assay results as given in publication PMC2808332, “Expanding the Substantial Interactome of NEMO Using Protein Microarrays” (PLoS ONE, 2010).

B1: LIM and cysteine-rich domains 1 (natural protein, human, UniProt Q9NZU5-1 1-365, looked up)
chain: MAKVAKDLNPGVKKMSLGQLQSARGVACLGCKGTCSGFEPHSWRKICKSCKCSQEDHCLTSDLEDDRKIGRLLMDSKYSTLTARVKGGDGIRIYKRNRMIMTNPIATGKDPTFDTITYEWAPPGVTQKLGLQYMELIPKEKQPVTGTEGAFYRRRQLMHQLPIYDQDPSRCRGLLENELKLMEEFVKQYKSEALGVGEVALPGQGGLPKEEGKQQEKPEGAETTAATTNGSLSDPSKEVEYVCELCKGAAPPDSPVVYSDRAGYNKQWHPTCFVCAKCSEPLVDLIYFWKDGAPWCGRHYCESLRPRCSGCDEIIFAEDYQRVEDLAWHRKHFVCEGCEQLLSGRAYIVTKGQLLCPTCSKSKRS
notes: LIM and cysteine-rich domains 1, human; also called LMCD1; source: insect cell/baculovirus, purified, spotted (Invitrogen Protoarray v4.0)
B2: Nucleosome assembly protein 1-like 5 (natural protein, human, UniProt Q96NT1 1-182, looked up)
chain: MADSENQGPAEPSQAAAAAEAAAEEVMAEGGAQGGDCDSAAGDPDSAAGQMAEEPQTPAENAPKPKNDFIESLPNSVKCRVLALKKLQKRCDKIEAKFDKEFQALEKKYNDIYKPLLAKIQELTGEMEGCAWTLEGEEEEEEEYEDDEEEGEDEEEEEAAAEAAAGAKHDDAHAEMPDDAKK
notes: Nucleosome assembly protein 1-like 5, human; also called NAP1L5; source: insect cell/baculovirus, purified, spotted (Invitrogen Protoarray v4.0)
B3: Nucleolar protein family A, member 2 (natural protein, human, UniProt Q9NX24 1-153, looked up)
chain: MTKIKADPDGPEAQAEACSGERTYQELLVNQNPIAQPLASRRLTRKLYKCIKKAVKQKQIRRGVKEVQKFVNKGEKGIMVLAGDTLPIEVYCHLPVMCEDRNLPYVYIPSKTDLGAAAGSKRPTCVIMVKPHEEYQEAYDECLEEVQSLPLPL
notes: Nucleolar protein family A, member 2, human; also called NOLA2; source: insect cell/baculovirus, purified, spotted (Invitrogen Protoarray v4.0)
B4: Growth arrest and DNA-damage-inducible, gamma (natural protein, human, UniProt O95257 1-159, looked up)
chain: MTLEEVRGQDTVPESTARMQGAGKALHELLLSAQRQGCLTAGVYESAKVLNVDPDNVTFCVLAAGEEDEGDIALQIHFTLIQAFCCENDIDIVRVGDVQRLAAIVGAGEEAGAPGDLHCILISNPNEDAWKDPALEKLSLFCEESRSVNDWVPSITLPE
notes: Growth arrest and DNA-damage-inducible, gamma, human; also called GADD45G; source: insect cell/baculovirus, purified, spotted (Invitrogen Protoarray v4.0)
B5: Chromosome 19 open reading frame 12 (natural protein, human, UniProt Q9NSK7-4 1-141, looked up)
chain: MTIMVEDIMKLLCSLSGERKMKAAVKHSGKGALVTGAMAFVGGLVGGPPGLAVGGAVGGLLGAWMTSGQFKPVPQILMELPPAEQQRLFNEAAAIIRHLEWTDAVQLTALVMGSEALQQQLLAMLVNYVTKELRAEIQYDD
notes: Chromosome 19 open reading frame 12, human; also called C19ORF12; source: insect cell/baculovirus, purified, spotted (Invitrogen Protoarray v4.0)
B6: Leupaxin (natural protein, human, UniProt O60711-1 1-386, looked up)
chain: MEELDALLEELERSTLQDSDEYSNPAPLPLDQHSRKETNLDETSEILSIQDNTSPLPAQLVYTTNIQELNVYSEAQEPKESPPPSKTSAAAQLDELMAHLTEMQAKVAVRADAGKKHLPDKQDHKASLDSMLGGLEQELQDLGIATVPKGHCASCQKPIAGKVIHALGQSWHPEHFVCTHCKEEIGSSPFFERSGLAYCPNDYHQLFSPRCAYCAAPILDKVLTAMNQTWHPEHFFCSHCGEVFGAEGFHEKDKKPYCRKDFLAMFSPKCGGCNRPVLENYLSAMDTVWHPECFVCGDCFTSFSTGSFFELDGRPFCELHYHHRRGTLCHGCGQPITGRCISAMGYKFHPEHFVCAFCLTQLSKGIFREQNDKTYCQPCFNKLFPL
notes: Leupaxin, human; also called LPXN; source: insect cell/baculovirus, purified, spotted (Invitrogen Protoarray v4.0)
B7: Calbindin D28K (natural protein, human, UniProt P05937-1 1-261, looked up)
chain: MAESHLQSSLITASQFFEIWLHFDADGSGYLEGKELQNLIQELQQARKKAGLELSPEMKTFVDQYGQRDDGKIGIVELAHVLPTEENFLLLFRCQQLKSCEEFMKTWRKYDTDHSGFIETEELKNFLKDLLEKANKTVDDTKLAEYTDLMLKLFDSNNDGKLELTEMARLLPVQENFLLKFQGIKMCGKEFNKAFELYDQDGNGYIDENELDALLKDLCEKNKQDLDINNITTYKKNIMALSDGGKLYRTDLALILCAGDN
notes: also called CALB1; source: insect cell/baculovirus, purified, spotted (Invitrogen Protoarray v4.0)
B8: DnaJ (Hsp40) homolog, subfamily C, member 8 (natural protein, human, UniProt O75937 1-253, looked up)
chain: MAASGESGTSGGGGSTEEAFMTFYSEVKQIEKRDSVLTSKNQIERLTRPGSSYFNLNPFEVLQIDPEVTDEEIKKRFRQLSILVHPDKNQDDADRAQKAFEAVDKAYKLLLDQEQKKRALDVIQAGKEYVEHTVKERKKQLKKEGKPTIVEEDDPELFKQAVYKQTMKLFAELEIKRKEREAKEMHERKRQREEEIEAQEKAKREREWQKNFEESRDGRVDSWRNFQANTKGKKEKKNRTFLRPPKVKMEQRE
notes: DnaJ (Hsp40) homolog, subfamily C, member 8, human; also called DNAJC8; source: insect cell/baculovirus, purified, spotted (Invitrogen Protoarray v4.0)
B9: Adenine phosphoribosyltransferase (natural protein, human, UniProt P07741-1 1-180, looked up)
chain: MADSELQLVEQRIRSFPDFPTPGVVFRDISPVLKDPASFRAAIGLLARHLKATHGGRIDYIAGLDSRGFLFGPSLAQELGLGCVLIRKRGKLPGPTLWASYSLEYGKAELEIQKDALEPGQRVVVVDDLLATGGTMNAACELLGRLQAEVLECVSLVELTSLKGREKLAPVPFFSLLQYE
notes: Adenine phosphoribosyltransferase, human; also called APRT; source: insect cell/baculovirus, purified, spotted (Invitrogen Protoarray v4.0)
B10: Family with sequence similarity 128, member A (natural protein, human, UniProt Q6P582 1-158, looked up)
chain: MAAQGVGPGPGSAAPPGLEAARQKLALRRKKVLSTEEMELYELAQAAGGGIDPDVFKILVDLLKLNVAPLAVFQMLKSMCAGQRLASEPQDPAAVSLPTSSVPETRGRDKGSAALGGVLALAERSNHEGSSQRMPRQPSATRLPKGGGPGKSPTQGST
notes: also called FAM128A; source: insect cell/baculovirus, purified, spotted (Invitrogen Protoarray v4.0)
B11: Vesicle-associated membrane protein 3 (cellubrevin) (natural protein, human, UniProt Q15836 1-100, looked up)
chain: MSTGPTAATGSNRRLQQTQNQVDEVVDIMRVNVDKVLERDQKLSELDDRADALQAGASQFETSAAKLKRKYWWKNCKMWAIGITVLVIFIIIIIVWVVSS
notes: Vesicle-associated membrane protein 3 (cellubrevin), human; also called VAMP3; source: insect cell/baculovirus, purified, spotted (Invitrogen Protoarray v4.0)
B12: Hemoglobin, zeta (natural protein, human, UniProt P02008 1-142, looked up)
chain: MSLTKTERTIIVSMWAKISTQADTIGTETLERLFLSHPQTKTYFPHFDLHPGSAQLRAHGSKVVAAVGDAVKSIDDIGGALSKLSELHAYILRVDPVNFKLLSHCLLVTLAARFPADFTAEAHAAWDKFLSVVSSVLTEKYR
notes: Hemoglobin, zeta, human; also called HBZ; source: insect cell/baculovirus, purified, spotted (Invitrogen Protoarray v4.0)
B13: Tumor protein, translationally-controlled 1 (natural protein, human, UniProt P13693 1-172, looked up)
chain: MIIYRDLISHDEMFSDIYKIREIADGLCLEVEGKMVSRTEGNIDDSLIGGNASAEGPEGEGTESTVITGVDIVMNHHLQETSFTKEAYKKYIKDYMKSIKGKLEEQRPERVKPFMTGAAEQIKHILANFKNYQFFIGENMNPDGMVALLDYREDGVTPYMIFFKDGLEMEKC
notes: Tumor protein, translationally-controlled 1, human; also called TPT1; source: insect cell/baculovirus, purified, spotted (Invitrogen Protoarray v4.0)
B14: t-complex 10 (mouse)-like (natural protein, human, UniProt Q8TDR4 1-215, looked up)
chain: MLAGQLEARDPKEGTHPEDPCPGAGAVMEKTAVAAEVLTEDCNTGEMPPLQQQIIRLHQELGRQKSLWADVHGKLRSHIDALREQNMELREKLRALQLQRWKARKKSAASPHAGQESHTLALEPAFGKISPLSADEETIPKYAGHKNQSATLLGQRSSSNNSAPPKPMSLKIERISSWKTPPQENRDKNLSRRRQDRRATPTGRPTPCAERRGGV
notes: t-complex 10 (mouse)-like, human; also called TCP10L; source: insect cell/baculovirus, purified, spotted (Invitrogen Protoarray v4.0)
B15: Chromosome 9 open reading frame 32 (natural protein, human, UniProt Q9BV86 1-223, looked up)
chain: MTSEVIEDEKQFYSKAKTYWKQIPPTVDGMLGGYGHISSIDINSSRKFLQRFLREGPNKTGTSCALDCGAGIGRITKRLLLPLFREVDMVDITEDFLVQAKTYLGEEGKRVRNYFCCGLQDFTPEPDSYDVIWIQWVIGHLTDQHLAEFLRRCKGSLRPNGIIVIKDNMAQEGVILDDVDSSVCRDLDVVRRIICSAGLSLLAEERQENLPDEIYHVYSFALR
notes: Chromosome 9 open reading frame 32, human; also called C9ORF32; source: insect cell/baculovirus, purified, spotted (Invitrogen Protoarray v4.0)
B16: PHD finger protein 7 (natural protein, human, UniProt Q9BWX1-1 1-381, looked up)
chain: MKTVKEKKECQRLRKSAKTRRVTQRKPSSGPVCWLCLREPGDPEKLGEFLQKDNISVHYFCLILSSKLPQRGQSNRGFHGFLPEDIKKEAARASRKICFVCKKKGAAINCQKDQCLRNFHLPCGQERGCLSQFFGEYKSFCDKHRPTQNIQHGHVGEESCILCCEDLSQQSVENIQSPCCSQAIYHRKCIQKYAHTSAKHFFKCPQCNNRKEFPQEMLRMGIHIPDRDAAWELEPGAFSDLYQRYQHCDAPICLYEQGRDSFEDEGRWCLILCATCGSHGTHRDCSSLRSNSKKWECEECSPAAATDYIPENSGDIPCCSSTFHPEEHFCRDNTLEENPGLSWTDWPEPSLLEKPESSRGRRSYSWRSKGVRITNSCKKSK
notes: PHD finger protein 7, human; also called PHF7; source: insect cell/baculovirus, purified, spotted (Invitrogen Protoarray v4.0)

Target: T1, NEMO (NF-κB essential modulator), tag-free, biotinylated (human, UniProt Q9Y6K9 1-419, biotin (in vitro biotinylation kit, biotin:NEMO molar ratio 9:1))
T1 construct: NEMO, NF-κB essential modulator, human, 48 kDa; also called biotinylated NEMO; biotin-NEMO; source: E. coli BL21(DE3), purified (glutathione sepharose), GST removed with thrombin, biotinylated in vitro
Assay: peptide or protein array; Invitrogen Protoarray v4.0, about 8,400 human proteins spotted on nitrocellulose-coated glass slides; 10 µg biotinylated tag-free NEMO in 120 µl probing buffer (PBS, 0.5 mM DTT, 5 mM MgCl2, 5% glycerol, 0.05% Triton X-100), 4°C, 1.5 h; bound NEMO detected with labelled streptavidin; hits Z-score > 3, hits of the biotin-GST control array subtracted
Conditions: both partners purified

Binder	binding result
B1	binds
B2	binds
B3	binds
B4	binds
B5	binds
B6	binds
B7	binds
B8	binds
B9	binds
B10	binds
B11	binds
B12	binds
B13	binds
B14	binds
B15	binds
B16	binds
